How the values were obtained:
[1] = system: T1, gliadin peptide PQPQLPYPQPQLP
T1 sequence: PQPQLPYPQPQLP

[2] = system: T2, 33-mer gliadin peptide LQLQPFPQPQLPYPQPQLPYPQPQLPYPQPQPF
T2 sequence: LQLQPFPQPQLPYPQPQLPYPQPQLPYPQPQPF

[3] = system: recombinant alpha2-gliadin

Chain of barley endoprotease EPB2, mature form (chain, as listed by the source): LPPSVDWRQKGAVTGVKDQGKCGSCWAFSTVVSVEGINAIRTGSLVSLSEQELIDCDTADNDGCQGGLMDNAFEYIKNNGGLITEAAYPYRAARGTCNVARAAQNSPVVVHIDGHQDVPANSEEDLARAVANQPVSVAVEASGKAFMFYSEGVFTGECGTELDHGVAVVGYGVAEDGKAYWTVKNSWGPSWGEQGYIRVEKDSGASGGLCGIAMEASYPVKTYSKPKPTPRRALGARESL

Substance	Kcat/KM [1]	competitive proteolysis of the 13-mer and the 33-mer [1]	rate of substrate (33-mer+32-mer) disappearance [2]	time to hydrolyze 10 µM of the 33-mer with 0.1 µM enzyme [2]	digestion of purified α2-gliadin under acidic conditions [3]
Myxococcus xanthus prolyl endopeptidase (recombinant, expressed in E. coli)	548 mM^-1/s^-1	showed a clear preference for the 13-mer peptide	0.43 µM/min (MX PEP)	–	–
Sphingomonas capsulata prolyl endopeptidase (recombinant, expressed in E. coli)	492 mM^-1/s^-1	showed a clear preference for the 13-mer peptide	0.07 µM/min (SC PEP)	required >1 hr to reach a comparable endpoint	–
barley endoprotease EPB2, mature form	–	–	–	–	efficiently digests purified α2-gliadin
